Assay [1] has as its target T1, B7H3 on U251 cells (UniProt Q5ZPR3 29-534, limits assumed).
T1 construct: whole, on cells; also called U251 cells (expressing B7H3)
T1 sequence (looked up): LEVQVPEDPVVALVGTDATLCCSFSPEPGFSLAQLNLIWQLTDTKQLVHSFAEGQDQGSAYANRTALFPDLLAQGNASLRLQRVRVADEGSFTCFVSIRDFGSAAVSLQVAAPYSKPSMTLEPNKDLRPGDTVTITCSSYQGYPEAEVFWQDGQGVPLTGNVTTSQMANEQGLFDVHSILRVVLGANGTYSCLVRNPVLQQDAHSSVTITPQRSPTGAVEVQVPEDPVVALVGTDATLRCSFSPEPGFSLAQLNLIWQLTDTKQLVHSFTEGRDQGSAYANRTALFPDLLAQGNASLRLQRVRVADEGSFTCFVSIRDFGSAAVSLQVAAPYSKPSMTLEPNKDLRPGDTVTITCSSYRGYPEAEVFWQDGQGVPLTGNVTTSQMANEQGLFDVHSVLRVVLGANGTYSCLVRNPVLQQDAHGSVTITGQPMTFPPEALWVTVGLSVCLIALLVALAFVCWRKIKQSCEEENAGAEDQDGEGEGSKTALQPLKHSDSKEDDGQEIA
Put plainly: flow cytometry on U251 cells (expressing B7H3), MFI against antibody concentration. The method, then:
Recombinant antibodies with different concentrations were incubated with U251 cells (expressing B7H3), and the binding of the antibodies to the cell surface was assayed by the mean fluorescence intensity (MFI) of the cells. From the results shown in FIG. 2, the 1A5 and 1G7 antibodies and the humanized antibodies thereof can effectively bind to the surface of the U251 cells.

For assay [2], the target named is T2, B7H3-Fc recombinant protein (human, UniProt Q5ZPR3 29-461).
T2 construct: also called human B7H3 protein; not shown: Fc part of the B7H3-Fc recombinant protein
T2 sequence (looked up): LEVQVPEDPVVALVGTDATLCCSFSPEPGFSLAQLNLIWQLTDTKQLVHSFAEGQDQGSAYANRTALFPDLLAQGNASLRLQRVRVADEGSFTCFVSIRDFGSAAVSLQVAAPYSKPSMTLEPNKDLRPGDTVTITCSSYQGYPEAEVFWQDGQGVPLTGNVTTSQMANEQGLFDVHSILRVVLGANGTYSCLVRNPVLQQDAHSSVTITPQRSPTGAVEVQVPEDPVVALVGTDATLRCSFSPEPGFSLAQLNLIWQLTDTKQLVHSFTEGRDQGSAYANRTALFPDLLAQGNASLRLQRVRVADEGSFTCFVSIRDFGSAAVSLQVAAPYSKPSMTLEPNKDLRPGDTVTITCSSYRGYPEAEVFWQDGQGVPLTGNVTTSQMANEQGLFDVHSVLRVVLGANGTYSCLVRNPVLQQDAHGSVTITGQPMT
The assay can be described thus: SPR, Biacore 8K, CM5 chip. The procedure:
The mouse anti-human IgG (Fc) antibody was diluted with the immobilization reagent (sodium acetate, pH 5.0): 950 μL of the immobilization reagent was added to 50 μL of the mouse anti-human IgG (Fc) antibody. The dilution was used for immobilization in eight channels. First, the surface of the CM5 chip was activated for 360 s with EDC and NHS at a flow rate of 10 μL/min. Then, the mouse anti-human IgG (Fc) antibody was injected into the channels (channels 1-8, Fc1,2) at a flow rate of 10 μL/min for about 360 s, with the level of immobilization at about 7000 to 14,000 RU. Finally, the chip was blocked with ethanolamine at 10 μL/min for 420 s.
The human B7H3 protein was diluted 2-fold with the running reagent. The diluted human B7H3 protein was injected into the experimental channels and the reference channels in sequence at a flow rate of 30 μL/min, and corresponding periods of association and dissociation were allowed. The association and dissociation steps were all performed in the running reagent. After each concentration analysis, the chip needed to be regenerated with magnesium chloride at a flow rate of 20 μL/min for 30 s to wash away the ligand and undissociated analyte. For the next concentration analysis, the experimental channels needed to recapture the same amount of ligand.
A KD value was calculated for each sample using Biacore 8K analysis software Biacore Insight Evaluation Software. The reference channels (Fc1) were used for background subtraction.
In general terms: Surface plasmon resonance follows binding to a sensor surface in real time, without labels.

B1: hu1A5 (VHH)
VHH: QVQLVESGGGLVQPGGSLRLSCAASGRIFSNYSVGWFRQAPGKEREFVAAIIWSTGTTYYADSVKGRFTISRDNSKNTLYLQMNSLRAEDTAVYYCAASFKYSGIYGREADFGSWGQGTLVTVSS
notes: a member of the group m3 (humanized antibodies of 1A5 and 1G7); also called humanized antibody of 1A5
Take B1: the binding result in assay [1] is listed as “binds”.

B2: hu1G7 (VHH)
VHH: AVQLVESGGGLVQPGGSLRLSCAASGRIFSNYAMGWFRQAPGKEREFVAAIIGSTGTVYYADSVKGRFTISRDNSKNTLYLQMNSLRAEDTAVYYCAASFRYSGIYGREADFVSWGQGTLVTVSS
notes: a member of the group m3 (humanized antibodies of 1A5 and 1G7); also called humanized antibody of 1G7
On to B2, for which, in assay [1], the binding result was “binds”.

B3: B7H3 single-domain antibody 1A5 (VHH)
VHH: QAQLVESGGGLVQTGGSLRLSCAASGRIFSNYSVGWFRQAPGKEREFVAAIIWSTGTTNLADPMKGRFTISRDNAKNTVVLQMNSLKPEDTAIYYCAASFKYSGIYGREADFGSWGQGTQVTVSS
notes: Called a single-domain antibody / recombinant antibody; also called 1A5 antibody; anti-B7H3 VHH antibody
As to B3, in assay [2], the Kd (commonly the free concentration of one partner at which half of the binding sites on the other are occupied at equilibrium, for simple one-to-one binding) was 7.39 nM; the off-rate constant (koff) (usually the first-order rate constant of dissociation) came to 0.0045 s⁻¹; the kon (in general, a measure of how fast the partners come together) worked out at 609000 M⁻¹ s⁻¹. Besides, the binding result in assay [1] is “binds”.

B4: B7H3 single-domain antibody 1G7 (VHH)
VHH: AVQLVESGGGLVQTGGSLRLSCADSGRIFSNYAMGWFRQAPGKEREFVAAIIGSTGTVNYADSMKGRFTISRDNAKNTVVLQMNSLKPEDTAIYYCAASFRYSGIYGREADFVSWGQGTQVTVSS
notes: Called a single-domain antibody / recombinant antibody; also called 1G7 antibody; anti-B7H3 VHH antibody
For B4, in assay [2], the Kd was 5.38 nM, the koff came out at 0.00618 s⁻¹ and the kon stood at 1.15e+06 M⁻¹ s⁻¹. Also, the EC50 (read off the curve) (commonly the concentration at which the effect is half-maximal) in assay [1] was about 4 ng/µL.

The record behind these values is patent US20240269283A1 (NINGBO T MAXIMUM BIOPHARMACEUTICALS, published 2024).
